Data: patent US6350609B1, “Electrospraying for mass fabrication of chips and libraries” (New York University, priority 1997, dated 2002)
Several values for one entry are separate records, joined by “and”; a condition that tells them apart may be missing. Identical values can stand only once.

Assays:
Cytochrome C (equine) = Cytochrome C (equine) (Equus caballus, UniProt P00004); assay: Mechano-chemical effect of a specific ligand on cross-linked protein film (isometric tension); type: biochemical; conditions: electrospray deposited, reduction with dithionite
Cytochrome C (equine), sequence (P00004 whole entry): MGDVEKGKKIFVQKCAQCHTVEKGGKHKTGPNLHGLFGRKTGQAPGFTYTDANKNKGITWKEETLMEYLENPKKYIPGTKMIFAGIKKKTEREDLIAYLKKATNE

alkaline phosphatase = molecular target: T1, alkaline phosphatase (Bos taurus, UniProt P19111); assay: Enzyme activity of electrospray-deposited alkaline phosphatase on nitrocellulose filter (BCIP/NBT substrate); type: biochemical; conditions: deposited through polypropylene mask onto wetted nitrocellulose filter; BCIP/NBT staining
T1 construct: purchased Sigma Chemical Company, St. Louis, Mo
From the text: The electrospray conditions used in this example were similar to those used in Example 1.
Likewise, the membrane filters on which alkaline phosphatase was deposited was soaked in a standard alkaline phosphatase substrate (5-bromo-4-chloro-3-indolyl phosphate/nitro blue tetrazolium substrate system kit, Sigma, St. Louis, Mo.), resulting in the formation of an insoluble blue colored product of the alkaline phosphatase reaction, and the pattern was visualized as shown in FIG. 12B.

Bovine intestinal AP = Bovine intestinal AP (Bos taurus, UniProt P19111); conditions: McComb et al., 1979; cited from earlier work
[1] = Engström, 1961; cited from earlier work
[2] = molecular target: T2, Alkaline phosphatase (AP) from bovine intestinal mucosa (Bos taurus, UniProt P19111); assay: Recovery of specific AP activity (pNPP) after electrospray deposition or drying; type: biochemical; conditions: for Activity % (ratio of specific activity of the electrospray-deposited AP to that in the initial solution): +(3-4) kV, 1-50 nA, 0.1 μL/min, tip distance 10 mm, humidity 65 ± 5%
T2 construct: purchased Sigma Chemical Co., St. Louis, Mo; host or cells: bovine intestinal mucosa
From the text: Materials. Alkaline phosphatase (AP) from bovine intestinal mucosa, p-nitrophenyl phosphate (pNPP substrate table set, Sigma Fast), trehalose and sucrose were obtained from Sigma Chemical Co., St. Louis, Mo. All other salts and buffer reagents were of analytical grade.
Design of Capillaries for Electrospray. Three different designs of the electrospray capillaries have been tested throughout this study. A first design, shown in FIG. 20A, is similar to the “nanoelectrospray ion source” (Wilm et al., 1994 and 1996) with a silver layer plated on the external surface of the capillary instead of gold. Glass capillaries with sealed ends were first treated for 20 seconds with an electrodeless plasma discharge at reduced pressure (0.01 Torr, discharge power of 10-20 W, in a Pyrex class chamber, 0.25 L). After such plasma cleaning, the glass capillaries were activated in an acidified solution of SnCl2 and 50 g of HCl per 1 L), washed with water and covered with a silver “mirror” (Yampolskii et al., 1981). This design is referred to as a capillary with an external electrode.
A second design, shown in FIG. 20B, is a modification of an electrospray capillary described by the laboratory of the present inventors (Morozov et al., 1993). In this capillary metal electrode (tungsten or stainless steel wire) is not exposed to a gas phase, thus reducing the risk of cornea discharge at high voltages. This second design is referred to as a capillary with an inner electrode.
In a third design, of the capillary (referred to as a bridge capillary), contact of protein solutions with a metal electrode was completely avoided by introducing a liquid bridge between them. […] Since the cross-section of the external capillary 5 is more than ten times larger than that of the inner capillary 7, the conductivity of the external capillary exceeds […] the conductivity of the inner capillary, making most of the current go through the large external capillary 5, whereas the internal plastic capillary 7 is used to supply protein solution.
A microprocessor controlled syringe pump (Cole-Parmer, Niles, Ill.) in combination with a 10 μL Hamilton microsyringe was used to feed the electrospray capillaries. The flow rate was 6-9 μL/h, and the outer diameter of the capillary tips varied in different experiments between 50 and 100 μm.
Chamber with Controlled Humidity. To control humidity during electrospray experiments with enzymes and to protect protein samples from contamination with dust particles present in the ambient air, the electrospray deposition was performed in a small (0.5 L) nearly cubic acrylic box, schematically presented in FIG. 21. A glass window was glued to one side of the box to enable sharp observation of the electrospray torch and substrate under a stereo microscope. The humidity and temperature inside the chamber were measured with solid state digital sensors (Fisher) with 2-4% precision for humidity and 0.2° C. for temperature. To increase the rate of sensor response and to keep the same humidity in all parts of the chamber, the air was stirred with a small fan. Dry air from a tank or air bubbled through water was introduced into the chamber until the required humidity was reached. The fan was then stopped, and electrospray initiated. Occasionally, portions of dry or wet gas were added during the spray experiment if the humidity deviated by more than 3-5% from the required level.
Mass Measurements of the Electrospray-Deposited Proteins. A home-built Quartz Crystal Microbalance (QCM; Sauerbrey, 1959) was used to measure the mass of the electrospray-deposited protein. The microbalance was made of commercial AT-cut quartz crystals (12-17 MHz, with silver electrodes of 5 mm in diameter) after removal of their protective shells. QCM calibration was performed using 0.1% solution of sugar in water. […]

| Molecule | Effect in Electrospray Deposit Sample % (relative change in isometric tension) (Cytochrome C (equine)) | enzymatic activity after electrospray deposition (alkaline phosphatase) | pH of exposure causing irreversible inactivation (Bovine intestinal AP) | pI [1] | Activity % (ratio of specific activity of the electrospray-deposited AP to that in the initial solution) ([2]; Bridge Type capillary) [%] | AP activity after electrospray deposition at high voltage and current ([2]; V>7-8 kV, I>500-1500 nA) | AP activity preserved upon drying ([2]; addition of 50% (w/w) of disaccharide (sucrose or trehalose)) [%] | difference in specific AP activity of deposits made at low current before and after electrospray at 1500 nA from the same capillary ([2]; capillaries with internal and external electrodes) | Activity % (ratio of specific activity of the electrospray-deposited AP to that in the initial solution) ([2]; capillary with External Electrode) [%] | Activity % (ratio of specific activity of the electrospray-deposited AP to that in the initial solution) ([2]; capillary with Internal Electrode) [%] | AP inactivation upon electrospray deposition ([2]; capillary with internal electrode, humidity A=65%, currents not exceeding 50 nA) | decrease of AP activity upon electrospray deposition under low humidity ([2]; rapid drying of droplets in gas phase, low humidity, +4 kV, internal electrode, 10-50 nA, 6 μL/h) [%] | AP inactivation upon electrospray deposition ([2]; the two other capillary designs (external electrode, bridge), similar currents and humidity) [%] |
| --- | --- | --- | --- | --- | --- | --- | --- | --- | --- | --- | --- | --- | --- |
| O=S(O)S(=O)O [dithionite] | −41% and −49% |  |  |  |  |  |  |  |  |  |  |  |  |
| AP: Alkaline phosphatase (AP) from bovine intestinal mucosa, Sigma (protein, UniProt P19111 20-506, looked up) Intestinal-type alkaline …: LVPVEEEDPAFWNRQAAQALDVAKKLQPIQTAAKNVILFLGDGMGVPTVTATRILKGQMNGKLGPETPLAMDQFPYVALSKTYNVDRQVPDSAGTATAYLCGVKGNYRTIGVSAAARYNQCKTTRGNEVTSVMNRAKKAGKSVGVVTTTRVQHASPAGAYAHTVNRNWYSDADLPADAQMNGCQDIAAQLVNNMDIDVILGGGRKYMFPVGTPDPEYPDDASVNGVRKRKQNLVQAWQAKHQGAQYVWNRTALLQAADDSSVTHLMGLFEPADMKYNVQQDHTKDPTLQEMTEVALRVVSRNPRGFYLFVEGGRIDHGHHDDKAYMALTEAGMFDNAIAKANELTSELDTLILVTADHSHVFSFGGYTLRGTSIFGLAPSKALDSKSYTSILYGNGPGYALGGGSRPDVNDSTSEDPSYQQQAAVPQASETHGGEDVAVFARGPQAHLVHGVEEETFVAHIMAFAGCVEPYTDCNLPAPTTATSIPD |  | retained | 4.5-5.0 | 4.4 | 31 ± 12 | loses nearly all of its activity | 100 | no notable difference | 32 ± 9 | 55 ± 10 | approximately 45% | 30 | 70 |
